Experimental data as given in patent US6875743B1, “Cell adhesion inhibitors” (Biogen, Inc., priority 1996, dated 2005).
* marks the point of attachment. 2‑MPUPA = 4-(N′-(2-methylphenyl)urea)phenylacetyl, Cc1ccccc1NC(=O)Nc1ccc(CC(=O)*)cc1; Quinaldoyl = O=C(c1ccc2ccccc2n1)*; Bz = O=C(c1ccccc1)*; Ahx = NCCCCCC(=O)O

Target: T1, α4β1 integrin, very late antigen-4 (VLA-4) (UniProt P13612 34-1032; P05556 21-798, limits assumed)
T1 construct: whole, on cells; also called CD49d/CD29
Experiment: inhibition of Ramos cell adhesion to BSA-CS1
Method: Following labelling, the cells were washed twice in assay buffer (24 mM TRIS, 137 mM NaCl, 2.7 mM KCl, pH 7.4, containing 0.1% BSA and 2 mM glucose) to remove any cations originating from the culture medium. The cells were then resuspended in assay buffer to 4×10⁶ cells/mL and 2 mM MnCl_2 was added to upregulate VLA4 on the surface of the cells.
Immediately prior to running the assay, we removed the BSA blocking solution from the 96-well plates and washed the wells with 100 μL of assay buffer. We then added to each well 25 μL of test cell adhesion inhibitory compound at 2× the final concentration and 25 μL of the labelled Ramos cells. […] Each concentration of compound was tested in triplicate. The compound and cells are allowed to incubate for 30 minutes at room temperature.
Percent binding is calculated by the formula: […]

T1 sequence (P13612 34-1032 limits assumed, chain 1 of 2): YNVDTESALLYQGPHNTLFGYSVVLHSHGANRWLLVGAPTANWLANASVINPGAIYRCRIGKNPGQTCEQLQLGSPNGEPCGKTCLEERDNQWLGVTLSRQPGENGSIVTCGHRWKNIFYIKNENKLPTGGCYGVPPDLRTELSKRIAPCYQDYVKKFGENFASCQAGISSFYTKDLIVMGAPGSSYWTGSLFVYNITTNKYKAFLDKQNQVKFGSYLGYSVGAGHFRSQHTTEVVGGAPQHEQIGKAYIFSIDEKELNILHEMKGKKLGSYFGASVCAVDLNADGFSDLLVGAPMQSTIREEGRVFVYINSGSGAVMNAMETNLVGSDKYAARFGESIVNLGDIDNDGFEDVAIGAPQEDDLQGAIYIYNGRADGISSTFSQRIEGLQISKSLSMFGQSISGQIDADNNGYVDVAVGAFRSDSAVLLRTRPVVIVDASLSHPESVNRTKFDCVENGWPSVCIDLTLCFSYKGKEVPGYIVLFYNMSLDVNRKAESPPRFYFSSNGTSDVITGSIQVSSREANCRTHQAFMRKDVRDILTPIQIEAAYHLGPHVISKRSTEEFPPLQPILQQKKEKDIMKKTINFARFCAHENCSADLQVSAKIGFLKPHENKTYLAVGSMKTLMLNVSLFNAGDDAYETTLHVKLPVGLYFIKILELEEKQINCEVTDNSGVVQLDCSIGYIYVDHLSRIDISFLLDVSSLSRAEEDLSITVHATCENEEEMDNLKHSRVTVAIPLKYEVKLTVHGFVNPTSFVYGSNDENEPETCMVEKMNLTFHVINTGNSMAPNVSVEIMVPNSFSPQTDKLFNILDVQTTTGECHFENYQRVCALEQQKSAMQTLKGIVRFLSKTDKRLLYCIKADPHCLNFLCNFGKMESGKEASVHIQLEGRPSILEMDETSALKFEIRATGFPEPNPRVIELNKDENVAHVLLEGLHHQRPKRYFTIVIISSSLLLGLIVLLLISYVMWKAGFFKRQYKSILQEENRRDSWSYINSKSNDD
T1 sequence (P05556 21-798 limits assumed, chain 2 of 2): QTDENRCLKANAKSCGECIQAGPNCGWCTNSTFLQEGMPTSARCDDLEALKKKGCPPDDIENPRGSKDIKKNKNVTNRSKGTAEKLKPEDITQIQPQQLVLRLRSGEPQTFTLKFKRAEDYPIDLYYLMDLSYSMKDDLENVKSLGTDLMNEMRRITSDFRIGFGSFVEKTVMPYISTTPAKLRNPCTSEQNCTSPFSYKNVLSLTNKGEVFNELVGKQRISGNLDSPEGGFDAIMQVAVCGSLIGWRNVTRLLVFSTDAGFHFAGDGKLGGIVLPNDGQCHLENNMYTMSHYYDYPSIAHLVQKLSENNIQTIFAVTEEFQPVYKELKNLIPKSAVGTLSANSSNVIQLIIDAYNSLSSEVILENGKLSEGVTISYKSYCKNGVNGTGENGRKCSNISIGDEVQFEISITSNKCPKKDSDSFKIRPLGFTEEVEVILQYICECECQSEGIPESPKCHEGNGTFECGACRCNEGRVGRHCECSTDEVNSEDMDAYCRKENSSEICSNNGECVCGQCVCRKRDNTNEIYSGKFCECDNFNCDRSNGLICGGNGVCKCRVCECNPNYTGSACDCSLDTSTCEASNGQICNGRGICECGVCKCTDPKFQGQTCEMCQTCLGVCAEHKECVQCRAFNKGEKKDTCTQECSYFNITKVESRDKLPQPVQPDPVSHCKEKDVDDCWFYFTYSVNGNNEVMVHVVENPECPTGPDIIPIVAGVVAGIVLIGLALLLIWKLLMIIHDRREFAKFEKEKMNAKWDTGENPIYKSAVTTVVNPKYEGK

B1: Compound 186 (peptide)
peptide: Quinaldoyl-LDVM-OH
SMILES: CSCC[C@H](NC(=O)[C@@H](NC(=O)[C@H](CC(=O)O)NC(=O)[C@H](CC(C)C)NC(=O)c1ccc2ccccc2n1)C(C)C)C(=O)O
  IC50: > 10 µM

B2: Compound 202 (peptide)
peptide: {2‑MPUPA}-K(Ahx)DVP-OH
SMILES: Cc1ccccc1NC(=O)Nc1ccc(CC(=O)N[C@@H](CCCCNC(=O)CCCCCN)C(=O)N[C@@H](CC(=O)O)C(=O)N[C@H](C(=O)N2CCC[C@H]2C(=O)O)C(C)C)cc1
  IC50: 0.05 to 10 µM

B3: Compound 315 (peptide)
peptide: {2‑MPUPA}-MDVP-OH
SMILES: CSCC[C@H](NC(=O)Cc1ccc(NC(=O)Nc2ccccc2C)cc1)C(=O)N[C@@H](CC(=O)O)C(=O)N[C@H](C(=O)N1CCC[C@H]1C(=O)O)C(C)C
  IC50: < 0.05 µM

B4: Compound 341 (peptide)
peptide: {2‑MPUPA}-LPVD-OH
SMILES: Cc1ccccc1NC(=O)Nc1ccc(CC(=O)N[C@@H](CC(C)C)C(=O)N2CCC[C@H]2C(=O)N[C@H](C(=O)N[C@@H](CC(=O)O)C(=O)O)C(C)C)cc1
  IC50: > 10 µM

B5: Compound 153 (peptide)
peptide: Bz-FLDV-OH
SMILES: CC(C)C[C@H](NC(=O)[C@H](Cc1ccccc1)NC(=O)c1ccccc1)C(=O)N[C@@H](CC(=O)O)C(=O)N[C@H](C(=O)O)C(C)C
  IC50: > 10 µM

## Ac-FLDV-OH [Compound 152]
  IC50: > 10 µM

B6: Compound 338 (peptide)
peptide: {2‑MPUPA}-LDVPST-OH
SMILES: Cc1ccccc1NC(=O)Nc1ccc(CC(=O)N[C@@H](CC(C)C)C(=O)N[C@@H](CC(=O)O)C(=O)N[C@H](C(=O)N2CCC[C@H]2C(=O)N[C@@H](CO)C(=O)N[C@H](C(=O)O)[C@@H](C)O)C(C)C)cc1
  IC50: < 0.05 µM

## {2‑MPUPA}-LDVPS-OH [Compound 337]
  IC50: < 0.05 µM

B7: Compound 339 (peptide)
peptide: {2‑MPUPA}-VLPD-OH
SMILES: Cc1ccccc1NC(=O)Nc1ccc(CC(=O)N[C@H](C(=O)N[C@@H](CC(C)C)C(=O)N2CCC[C@H]2C(=O)N[C@@H](CC(=O)O)C(=O)O)C(C)C)cc1
  IC50: > 10 µM
